# B1: FLAG-tagged wild-type GMCL1 (germ cell-less protein-like 1) [human] / 53BP1 (p53-binding protein 1), endogenous in HEK293T [human (endogenous in HEK293T)] (parent complex)
# chain 1: MGSLSSRVLRQPRPALAQQAQGARAGGSARRPDTGDDAAGHGFCYCAGSHKRKRSSGSFCYCHPDSETDEDEEEGDEQQRLLNTPRRKKLKSTSKYIYQTLFLNGENSDIKICALGEEWSLHKIYLCQSGYFSSMFSGSWKESSMNIIELEIPDQNIDVEALQVAFGSLYRDDVLIKPSRVVAILAAACLLQLDGLIQQCGETMKETVNVKTVCGYYTSAGTYGLDSVKKKCLEWLLNNLMTHQNVELFKELSINVMKQLIGSSNLFVMQVEMDIYTALKKWMFLQLVPSWNGSLKQLLTETDVWFSKQRKDFEGMAFLETEQGKPFVSVFRHLRLQYIISDLASARIIEQDAVVPSEWLSSVYKQQWFAMLRAEQDSEVGPQEINKEELEGNSMRCGRKLAKDGEYCWRWTGFNFGFDLLVTYTNRYIIFKRNTLNQPCSGSVSLQPRRSIAFRLRLASFDSSGKLICSRTTGYQILTLEKDQEQVVMNLDSRLLIFPLYICCNFLYISPEKKN
# chain 2: MDPTGSQLDSDFSQQDTPCLIIEDSQPESQVLEDDSGSHFSMLSRHLPNLQTHKENPVLDVVSNPEQTAGEERGDGNSGFNEHLKENKVADPVDSSNLDTCGSISQVIEQLPQPNRTSSVLGMSVESAPAVEEEKGEELEQKEKEKEEDTSGNTTHSLGAEDTASSQLGFGVLELSQSQDVEENTVPYEVDKEQLQSVTTNSGYTRLSDVDANTAIKHEEQSNEDIPIAEQSSKDIPVTAQPSKDVHVVKEQNPPPARSEDMPFSPKASVAAMEAKEQLSAQELMESGLQIQKSPEPEVLSTQEDLFDQSNKTVSSDGCSTPSREEGGCSLASTPATTLHLLQLSGQRSLVQDSLSTNSSDLVAPSPDAFRSTPFIVPSSPTEQEGRQDKPMDTSVLSEEGGEPFQKKLQSGEPVELENPPLLPESTVSPQASTPISQSTPVFPPGSLPIPSQPQFSHDIFIPSPSLEEQSNDGKKDGDMHSSSLTVECSKTSEIEPKNSPEDLGLSLTGDSCKLMLSTSEYSQSPKMESLSSHRIDEDGENTQIEDTEPMSPVLNSKFVPAENDSILMNPAQDGEVQLSQNDDKTKGDDTDTRDDISILATGCKGREETVAEDVCIDLTCDSGSQAVPSPATRSEALSSVLDQEEAMEIKEHHPEEGSSGSEVEEIPETPCESQGEELKEENMESVPLHLSLTETQSQGLCLQKEMPKKECSEAMEVETSVISIDSPQKLAILDQELEHKEQEAWEEATSEDSSVVIVDVKEPSPRVDVSCEPLEGVEKCSDSQSWEDIAPEIEPCAENRLDTKEEKSVEYEGDLKSGTAETEPVEQDSSQPSLPLVRADDPLRLDQELQQPQTQEKTSNSLTEDSKMANAKQLSSDAEAQKLGKPSAHASQSFCESSSETPFHFTLPKEGDIIPPLTGATPPLIGHLKLEPKRHSTPIGISNYPESTIATSDVMSESMVETHDPILGSGKGDSGAAPDVDDKLCLRMKLVSPETEASEESLQFNLEKPATGERKNGSTAVAESVASPQKTMSVLSCICEARQENEARSEDPPTTPIRGNLLHFPSSQGEEEKEKLEGDHTIRQSQQPMKPISPVKDPVSPASQKMVIQGPSSPQGEAMVTDVLEDQKEGRSTNKENPSKALIERPSQNNIGIQTMECSLRVPETVSAATQTIKNVCEQGTSTVDQNFGKQDATVQTERGSGEKPVSAPGDDTESLHSQGEEEFDMPQPPHGHVLHRHMRTIREVRTLVTRVITDVYYVDGTEVERKVTEETEEPIVECQECETEVSPSQTGGSSGDLGDISSFSSKASSLHRTSSGTSLSAMHSSGSSGKGAGPLRGKTSGTEPADFALPSSRGGPGKLSPRKGVSQTGTPVCEEDGDAGLGIRQGGKAPVTPRGRGRRGRPPSRTTGTRETAVPGPLGIEDISPNLSPDDKSFSRVVPRVPDSTRRTDVGAGALRRSDSPEIPFQAAAGPSDGLDASSPGNSFVGLRVVAKWSSNGYFYSGKITRDVGAGKYKLLFDDGYECDVLGKDILLCDPIPLDTEVTALSEDEYFSAGVVKGHRKESGELYYSIEKEGQRKWYKRMAVILSLEQGNRLREQYGLGPYEAVTPLTKAADISLDNLVEGKRKRRSNVSSPATPTASSSSSTTPTRKITESPRASMGVLSGKRKLITSEEERSPAKRGRKSATVKPGAVGAGEFVSPCESGDNTGEPSALEEQRGPLPLNKTLFLGYAFLLTMATTSDKLASRSKLPDGPTGSSEEEEEFLEIPPFNKQYTESQLRAGAGYILEDFNEAQCNTAYQCLLIADQHCRTRKYFLCLASGIPCVSHVWVHDSCHANQLQNYRNYLLPAGYSLEEQRILDWQPRENPFQNLKVLLVSDQQQNFLELWSEILMTGGAASVKQHHSSAHNKDIALGVFDVVVTDPSCPASVLKCAEALQLPVVSQEWVIQCLIVGERIGFKQHPKYKHDYVSH
# Variants of: B1
# Experiment: IP-MS (FLAG immunoprecipitation, MS/MS); HEK293T, 24 hr after transfection; read off a plot
row,screen value,Variant
1,~180,chain 1 E142K

# — paper PMC12815461 (2026)
